# The supplement of paper PMC10567573
# B1: NP_009172.2 (parent)
# chain: LPALFTDLYSQEITAEEAREALP
# Variants of: B1
# Experiment: protein stability index of a GFP-peptide fusion (GPS, HEK-293T) (PSI 1-6); higher = more stable
# Details: c terminus: native
# 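Note: lentivirally expressed fusion library, cells FACS-sorted into six equal-sized GFP/DsRed ratio bins, PSI computed from sequencing read fractions per bin weighted by bin number.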
row,Variant,protein stability index
1,APALFTDLYSQEITAEEAREALP [L1A],2.95
2,EPALFTDLYSQEITAEEAREALP [L1E],2.96
3,YPALFTDLYSQEITAEEAREALP [L1Y],2.5
4,RPALFTDLYSQEITAEEAREALP [L1R],2.22
5,IPALFTDLYSQEITAEEAREALP [L1I],2.63
6,LPANFTDLYSQEITAEEAREALP [L4N],2.76
7,LPAIFTDLYSQEITAEEAREALP [L4I],4.64
8,LPAHFTDLYSQEITAEEAREALP [L4H],3.54
9,LPAWFTDLYSQEITAEEAREALP [L4W],3.98
10,LPAGFTDLYSQEITAEEAREALP [L4G],2.69
11,LPAYFTDLYSQEITAEEAREALP [L4Y],3.47
12,LPAFFTDLYSQEITAEEAREALP [L4F],2.99
13,LPATFTDLYSQEITAEEAREALP [L4T],2.27
14,LPAKFTDLYSQEITAEEAREALP [L4K],2.77
15,LPAAFTDLYSQEITAEEAREALP [L4A],3.64
16,LPALFTDLYSQEITAEEAKEALP [R19K],2.79
17,LPALFTDLYSQEITAEEAGEALP [R19G],2.96
18,LPALFTDLYSQEITAEEANEALP [R19N],2.71
19,LPALFTDLYSQEITAEEAPEALP [R19P],2.93
20,LPALFTDLYSQEITAEEAFEALP [R19F],2.68
21,LPALFTDLYSQEITAEEADEALP [R19D],3
22,LPALFTDLYSQEITAEEAYEALP [R19Y],2.53
23,LPALFTDLYSQEITAEEAIEALP [R19I],2.45
24,LPALFTDLYSQEITAEEAMEALP [R19M],2.59
25,LPALFTDLYSQEITAEEAWEALP [R19W],2.56

row,Variant,protein stability index
1,LPALFTDMYSQEITAEEAREALP [L8M],2.24
2,LPALFTDCYSQEITAEEAREALP [L8C],3.77
3,LPALFTDPYSQEITAEEAREALP [L8P],5.43
4,LPALFTDRYSQEITAEEAREALP [L8R],2.22
5,LPALFTDDYSQEITAEEAREALP [L8D],5.11
6,LPALFTDKYSQEITAEEAREALP [L8K],2.39
7,LPALFTDVYSQEITAEEAREALP [L8V],2.81
8,LPALFTDFYSQEITAEEAREALP [L8F],3.05
9,LPALFTDWYSQEITAEEAREALP [L8W],3.27
10,LPALFTDHYSQEITAEEAREALP [L8H],2.56
11,LPALFTDLCSQEITAEEAREALP [Y9C],2.42
12,LPALFTDLISQEITAEEAREALP [Y9I],1.88
13,LPALFTDLRSQEITAEEAREALP [Y9R],5.15
14,LPALFTDLESQEITAEEAREALP [Y9E],5.17
15,LPALFTDLNSQEITAEEAREALP [Y9N],5.01
16,LPNLFTDLYSQEITAEEAREALP [A3N],2.96
17,LPLLFTDLYSQEITAEEAREALP [A3L],2.56
18,LPWLFTDLYSQEITAEEAREALP [A3W],2.42
19,LPKLFTDLYSQEITAEEAREALP [A3K],2.1
20,LPPLFTDLYSQEITAEEAREALP [A3P],2.62
21,LPCLFTDLYSQEITAEEAREALP [A3C],2.64
22,LPILFTDLYSQEITAEEAREALP [A3I],2.43
23,LPRLFTDLYSQEITAEEAREALP [A3R],2.43
24,LPYLFTDLYSQEITAEEAREALP [A3Y],2.62
25,LPHLFTDLYSQEITAEEAREALP [A3H],2.81

row,Variant,protein stability index
1,LPFLFTDLYSQEITAEEAREALP [A3F],2.76
2,LPALFTMLYSQEITAEEAREALP [D7M],2.71
3,LPALFTQLYSQEITAEEAREALP [D7Q],2.63
4,LPALFTFLYSQEITAEEAREALP [D7F],2.6
5,LPALFTVLYSQEITAEEAREALP [D7V],2.58
6,LPALFTRLYSQEITAEEAREALP [D7R],2.77
7,LPALFTSLYSQEITAEEAREALP [D7S],3.08
8,LPALFTKLYSQEITAEEAREALP [D7K],3.33
9,LPALFTYLYSQEITAEEAREALP [D7Y],2.56
10,LPALFTLLYSQEITAEEAREALP [D7L],2.61
11,LPALFTELYSQEITAEEAREALP [D7E],2.46
12,LPALFTDLYSQEITAEEAREWLP [A21W],2.19
13,LPALFTDLYSQEITAEEAREKLP [A21K],2.46
14,LPALFTDLYSQEITAEEAREYLP [A21Y],2.3
15,LPALFTDLYSQEITAEEARETLP [A21T],2.85
16,LPALFTDLYSQEITAEEAREELP [A21E],3.6
17,LPALFTDLYSQEITAEEARESLP [A21S],2.7
18,LPALFTDLYSQEITAEEAREILP [A21I],2.4
19,LPALFTDLYSQEITAEEARELLP [A21L],2.26
20,LPALFTDLYSQEITAEEARERLP [A21R],2.02
21,LPALFTDLYSQEITAEEAREFLP [A21F],2.31
22,LPALFTDLYHQEITAEEAREALP [S10H],2.85
23,LPALFTDLYKQEITAEEAREALP [S10K],2.48
24,LPALFTDLYDQEITAEEAREALP [S10D],2.8
25,LPALFTDLYCQEITAEEAREALP [S10C],2.16

row,Variant,protein stability index
1,LPALFTDLYAQEITAEEAREALP [S10A],2.52
2,LPALFTDLYVQEITAEEAREALP [S10V],2.35
3,LPALFTDLYNQEITAEEAREALP [S10N],2.61
4,LPALFTDLYWQEITAEEAREALP [S10W],2.26
5,LPALFTDLYMQEITAEEAREALP [S10M],2.26
6,LPALFTDLYEQEITAEEAREALP [S10E],2.48
7,LPALFTDLYPQEITAEEAREALP [S10P],3.79
8,LPALFTDLYSQEITAEEAREAMP [L22M],2.44
9,LPALFTDLYSQEITAEEAREAYP [L22Y],3.49
10,LPALFTDLYSQEITAEEAREARP [L22R],4.15
11,LPALFTDLYSQEITAEEAREAPP [L22P],3.63
12,LPALFTDLYSQEITAEEAREATP [L22T],3.44
13,LPALFTDLYSQEITAEEAREAKP [L22K],4.93
14,LPALFTDLYSQEITAEEAREAEP [L22E],2.69
15,LPALFTDLYSQEITAEEAREAIP [L22I],2.37
16,LPALFTDLYSQEITAEEARHALP [E20H],2.27
17,LPALFTDLYSQEITAEEARNALP [E20N],2.2
18,LPALFTDLYSQEITAEEARSALP [E20S],2.28
19,LPALFTDLYSQEITAEEARFALP [E20F],2.43
20,LPALFTDLYSQEITAEEARDALP [E20D],2.65
21,LPALFTDLYSQEITAEEARVALP [E20V],2.6
22,LPALFTDLYSQEITAEEARYALP [E20Y],3.08
